Drawing on US20220332804A1 (CSL INNOVATION, published 2022), this text covers Fold diff for 1 molecule.

Holding throughout (test): SPR; KD relative to WT C2;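 further: biacore SPR at 37 °C, anti-C2 mAbs captured on an anti-human IgG chip, alanine or serine C2 surface mutants tested, KD from 1:1 fit compared with wild-type C2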
For orientation: SPR reads the build-up and loss of mass on a sensor chip optically.

The target of one test is T1, human C2 R519A (human, UniProt P06681 21-752).
T1 sequence: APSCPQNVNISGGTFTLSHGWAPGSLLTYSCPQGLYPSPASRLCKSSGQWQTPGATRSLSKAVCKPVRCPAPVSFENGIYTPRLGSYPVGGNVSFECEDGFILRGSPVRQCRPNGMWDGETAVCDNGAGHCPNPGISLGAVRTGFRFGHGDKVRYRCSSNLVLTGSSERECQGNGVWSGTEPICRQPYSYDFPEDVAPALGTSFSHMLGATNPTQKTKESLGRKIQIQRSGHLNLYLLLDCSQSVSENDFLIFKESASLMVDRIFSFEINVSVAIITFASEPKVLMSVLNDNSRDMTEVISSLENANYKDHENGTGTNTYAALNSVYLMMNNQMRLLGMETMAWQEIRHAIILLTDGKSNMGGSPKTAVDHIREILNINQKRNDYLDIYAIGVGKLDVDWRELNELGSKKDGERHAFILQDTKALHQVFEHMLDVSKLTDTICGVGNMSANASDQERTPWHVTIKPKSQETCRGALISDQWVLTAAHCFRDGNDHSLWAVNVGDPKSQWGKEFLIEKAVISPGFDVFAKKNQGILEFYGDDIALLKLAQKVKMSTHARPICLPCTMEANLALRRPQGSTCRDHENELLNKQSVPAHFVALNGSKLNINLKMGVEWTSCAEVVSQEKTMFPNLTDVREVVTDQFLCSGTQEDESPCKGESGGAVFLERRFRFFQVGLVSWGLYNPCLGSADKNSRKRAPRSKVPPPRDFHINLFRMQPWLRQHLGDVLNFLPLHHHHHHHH

A further test concerns the target T2, human C2 N471A (human, UniProt P06681 21-752).
T2 sequence: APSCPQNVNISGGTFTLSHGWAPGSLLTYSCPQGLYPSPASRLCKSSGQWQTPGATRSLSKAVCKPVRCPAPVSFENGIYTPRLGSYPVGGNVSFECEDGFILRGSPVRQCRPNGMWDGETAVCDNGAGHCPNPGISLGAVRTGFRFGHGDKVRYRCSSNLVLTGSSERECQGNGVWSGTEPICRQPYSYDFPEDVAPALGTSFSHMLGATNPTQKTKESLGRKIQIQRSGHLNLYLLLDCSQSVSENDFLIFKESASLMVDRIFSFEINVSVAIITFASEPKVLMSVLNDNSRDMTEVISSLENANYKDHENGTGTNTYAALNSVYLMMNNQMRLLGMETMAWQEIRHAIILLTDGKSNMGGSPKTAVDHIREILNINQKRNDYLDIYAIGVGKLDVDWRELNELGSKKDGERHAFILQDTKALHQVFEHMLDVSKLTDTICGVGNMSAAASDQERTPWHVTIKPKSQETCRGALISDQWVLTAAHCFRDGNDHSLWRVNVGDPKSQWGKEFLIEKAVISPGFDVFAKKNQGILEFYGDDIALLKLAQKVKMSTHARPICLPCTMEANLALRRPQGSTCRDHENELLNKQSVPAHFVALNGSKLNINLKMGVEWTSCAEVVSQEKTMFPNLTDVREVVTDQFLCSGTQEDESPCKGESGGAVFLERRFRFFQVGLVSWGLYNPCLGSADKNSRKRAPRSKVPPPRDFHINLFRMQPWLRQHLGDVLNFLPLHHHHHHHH

A further test has as its target T3, human C2 D431A (human, UniProt P06681 21-752).
T3 sequence: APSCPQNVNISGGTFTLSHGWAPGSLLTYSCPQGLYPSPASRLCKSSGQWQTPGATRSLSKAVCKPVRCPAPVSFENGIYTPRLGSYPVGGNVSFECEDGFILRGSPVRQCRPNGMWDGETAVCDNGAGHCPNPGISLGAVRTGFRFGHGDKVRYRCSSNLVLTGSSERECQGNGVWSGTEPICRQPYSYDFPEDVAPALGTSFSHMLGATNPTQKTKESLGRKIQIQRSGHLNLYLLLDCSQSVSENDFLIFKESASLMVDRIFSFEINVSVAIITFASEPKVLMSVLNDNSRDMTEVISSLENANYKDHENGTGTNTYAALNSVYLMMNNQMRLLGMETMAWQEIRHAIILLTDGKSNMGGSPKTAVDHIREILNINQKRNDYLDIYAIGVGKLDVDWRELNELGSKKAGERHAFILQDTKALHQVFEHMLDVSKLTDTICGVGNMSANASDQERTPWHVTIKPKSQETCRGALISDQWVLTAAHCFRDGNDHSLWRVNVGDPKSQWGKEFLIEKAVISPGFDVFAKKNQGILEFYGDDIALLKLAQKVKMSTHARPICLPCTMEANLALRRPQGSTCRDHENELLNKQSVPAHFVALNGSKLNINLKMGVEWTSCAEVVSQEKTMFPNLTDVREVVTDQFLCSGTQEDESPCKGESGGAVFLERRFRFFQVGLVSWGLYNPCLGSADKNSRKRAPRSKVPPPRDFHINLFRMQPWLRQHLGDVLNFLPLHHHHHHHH

A further test deals with T4, human C2 D419A (human, UniProt P06681 21-752).
T4 sequence: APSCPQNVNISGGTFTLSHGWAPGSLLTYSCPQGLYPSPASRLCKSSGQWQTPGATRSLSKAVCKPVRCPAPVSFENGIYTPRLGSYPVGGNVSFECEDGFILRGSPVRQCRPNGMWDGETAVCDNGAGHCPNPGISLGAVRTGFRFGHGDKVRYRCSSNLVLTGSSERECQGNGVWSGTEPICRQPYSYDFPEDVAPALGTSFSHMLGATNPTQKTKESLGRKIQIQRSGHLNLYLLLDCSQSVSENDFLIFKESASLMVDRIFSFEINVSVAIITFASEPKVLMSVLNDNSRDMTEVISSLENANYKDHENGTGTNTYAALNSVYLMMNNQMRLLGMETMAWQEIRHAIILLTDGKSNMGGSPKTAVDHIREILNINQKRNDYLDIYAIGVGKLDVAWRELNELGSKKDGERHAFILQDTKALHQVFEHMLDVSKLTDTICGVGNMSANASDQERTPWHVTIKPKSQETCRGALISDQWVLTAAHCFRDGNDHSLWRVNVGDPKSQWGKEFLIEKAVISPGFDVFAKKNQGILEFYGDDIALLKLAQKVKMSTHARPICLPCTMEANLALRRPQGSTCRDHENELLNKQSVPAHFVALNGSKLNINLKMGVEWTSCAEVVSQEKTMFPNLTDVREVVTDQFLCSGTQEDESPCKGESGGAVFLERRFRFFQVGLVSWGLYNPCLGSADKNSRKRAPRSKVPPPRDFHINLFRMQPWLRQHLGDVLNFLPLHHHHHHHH

B1: RF16-214 (antibody, V domains shown)
VH: EVQLLESGGGLVQPGGSLRLSCAASGFTFSWYQMMWVRQAPGKGLEWVSRIYPSGGGTAYADSVKGRFTISRDNSKNTLYLQMNSLRAEDTAVYYCARDAGYGDNWGQGTLVTVSS
VL: QSALTQPPSVSVSPGQTASITCSGDKLGEKYASWYQQKAGQSPVMVIYQDRKRPSGIPERFSGSNSGNTATLTISGTQAMDEADYYCQAWDTRAVVFGGGTKLTVLG
With B1, the Fold diff in the test with human C2 R519A was determined as 1 fold; in the test with human C2 N471A, 1 fold; in the test with human C2 D431A, 2 fold; with human C2 D419A, 2 fold.
